Changes are numbered by the printed parent chain.
T1: human CD19 on CHO cells (human, UniProt P15391 20-556)
T1 construct: whole, on cells; also called Cells Expressing Human CD19; CHO cells overexpressing the antigen
T1 sequence (looked up): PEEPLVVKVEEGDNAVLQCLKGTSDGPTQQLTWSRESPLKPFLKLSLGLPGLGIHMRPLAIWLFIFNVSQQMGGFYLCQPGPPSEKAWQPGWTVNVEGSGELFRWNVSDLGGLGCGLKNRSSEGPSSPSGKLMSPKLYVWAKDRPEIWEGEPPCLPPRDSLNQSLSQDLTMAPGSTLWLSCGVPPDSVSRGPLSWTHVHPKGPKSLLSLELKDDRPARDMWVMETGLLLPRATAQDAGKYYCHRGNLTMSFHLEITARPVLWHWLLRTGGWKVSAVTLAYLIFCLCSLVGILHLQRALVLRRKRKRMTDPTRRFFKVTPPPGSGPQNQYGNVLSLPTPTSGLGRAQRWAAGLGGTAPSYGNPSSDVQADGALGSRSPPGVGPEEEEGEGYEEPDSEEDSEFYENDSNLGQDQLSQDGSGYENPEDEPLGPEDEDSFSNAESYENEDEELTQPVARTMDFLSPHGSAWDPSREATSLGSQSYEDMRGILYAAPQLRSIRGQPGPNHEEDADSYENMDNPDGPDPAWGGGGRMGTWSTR

T2: human CD19 (human, UniProt P15391 20-291, biotinylated in the Biacore assay of Table 11)
T2 construct: also called isolated CD19; Human CD19 Protein
T2 sequence (looked up): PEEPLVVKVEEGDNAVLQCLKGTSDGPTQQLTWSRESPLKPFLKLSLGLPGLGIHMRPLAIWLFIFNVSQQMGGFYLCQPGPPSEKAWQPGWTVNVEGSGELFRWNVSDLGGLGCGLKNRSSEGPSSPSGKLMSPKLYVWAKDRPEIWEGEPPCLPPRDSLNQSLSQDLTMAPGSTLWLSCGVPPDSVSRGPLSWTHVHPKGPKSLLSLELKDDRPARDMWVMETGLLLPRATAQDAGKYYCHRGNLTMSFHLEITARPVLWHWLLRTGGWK

B1: CNG-CD19-705 (antibody, V domains shown)
VH: QVQLQESGPGLVKPSQTLSLTCTVSGGSISTSGMGVGWIRQHPGKGLEWIGHIWWDDDKRYNPALKSRVTISVDTSKNQFSLKLSSVTAADTAVYYCARMELWSYYFDYWGQGTLVTVSS
VL: EIVLTQSPATLSLSPGERATLSCSASSSVGYMHWYQQKPGQAPRLLIYDTSSLASGIPARFSGSGSGTDFTLTISSLEPEDFAVYYCFQGSVYPFTFGQGTKLEIK
notes: tested as IgG produced in yeast
B2: CNG-CD19-704 (antibody, V domains shown)
VH: QVQLQESGPGLVKPSQTLSLTCTVSGGSIASGMGVGWIRQHPGKGLEWIGHIWWDDDKRYNPALKSRVTISVDTSKNQFSLKLSSVTAADTAVYYCARMELWSYYFDGWGQGTLVTVSS
VL: B1 VL with G30S, S52K
notes: as for B1
B3: CNG-CD19-709 (antibody, V domains shown)
VH: B1 VH with G33T, H52F, A64N, I71M, Y109P
VL: B1 VL with S52K, S55F
notes: as for B1
B4: CNG-CD19-706 (antibody, V domains shown)
VH: B2 VH with G36S, G108P
VL: B1 VL with S52K
notes: as for B1
B5: CNG-CD19-707 (antibody, V domains shown)
VH: B1 VH with G33T, H52F, A64N, I71M, Y109P
VL: B1 VL with S52K
notes: as for B1
B6: CNG-CD19-710 (antibody, V domains shown)
VH: B1 VH with G27V, G33S, I53A, Y109P
VL: B1 VL with V29F, G30S, S52K
notes: as for B1
B7: CNG-CD19-708 (antibody, V domains shown)
VH: B1 VH with G33T, H52F, A64N, I71M, Y109P
VL: B1 VL with S52K, A54S
notes: as for B1
B8: CNG-HSA-117 (VHH)
VHH: KVQLVESGGGLVQPGNSLRLSCAASGFTFSSFGMSWVRQAPGKGLEWVSSISGSGSDTLYADSVKGRFTISRDNSKNTLYLQMNSLRAEDTAVYYCTIGGSLTRSSQGTLVTVSS
B9: CNG-HSA-105 (VHH)
VHH: B8 VHH with K1E, V5L, N16G, T28V, A88P, T103S
B10: CNG-HSA-119 (VHH)
VHH: B8 VHH with T58A, V64A, S75A, N77T, T103S, R104P
B11: CNG-HSA-118 (VHH)
VHH: B8 VHH with S54G, K65R, T103R, R104A
B12: CNG-HSA-115 (VHH)
VHH: B8 VHH with S35G, D62P, A88P, I98F, G99A, T103S
B13: CNG-HSA-101 (VHH)
VHH: B8 VHH with N16G, S35T, K65R, T103S, R104P
B14: CNG-HSA-107 (VHH)
VHH: B8 VHH with V5L, N16G, K65R, T97S, T103I
B15: CNG-HSA-114 (VHH)
VHH: B8 VHH with Y60T, T103V
B16: CNG-HSA-104 (VHH)
VHH: B8 VHH with V5L, N16G, S30H, A88P, T103S
B17: CNG-HSA-109 (VHH)
VHH: B8 VHH with S30G, L45P, A88P, T103S
B18: CNG-HSA-120 (VHH)
VHH: B8 VHH with N16G, L45P, A88P, T103K, R104Q
B19: CNG-HSA-110 (VHH)
VHH: B8 VHH with S56G, V64A, A88P, T103S
B20: CNG-HSA-103 (VHH)
VHH: B8 VHH with N16G, S35T, K65R, A88P, T103S, R104P
B21: CNG-HSA-108 (VHH)
VHH: B8 VHH with N16G, S30G, S56A, T103R, R104A

The binders below were run against T1, human CD19 on CHO cells (assay: flow cytometry, CHO cells, 100 nM IgG).
Experimental: The binding affinity of the antibodies to CD19 expressed on the cell surface was also measured. Briefly, approximately 100,000 Chinese hamster overy (CHO) cells overexpressing the antigen were washed with wash buffer and incubated with 100 μl 100 nM IgG for 15 minutes at room temperature. Cells were then washed twice with wash buffer and incubated with 100 μl of 1:100 Human-PE for 15 minutes on ice. Cells were then washed twice more with wash buffer and analyzed on a FACS Canto II analyzer (BD Biosciences).

Row | Binder | Binding to Cells Expressing Human CD19 (FOB)
1 | B1 | 105 FOB
2 | B2 | 140 FOB
3 | B3 | 234 FOB
4 | B4 | 241 FOB
5 | B5 | 237 FOB
6 | B6 | 153 FOB
7 | B7 | 210 FOB

These binders were tested against T3, human serum albumin (human, UniProt P02768 25-609) (assay: Octet HTX (ForteBio), HCAb on AHC sensor, 1:1 fit).
T3 construct: also called HSA

Row | Binder | Kd | koff
8 | B8 | 5.56 nM | 0.000793 s⁻¹
9 | B9 | 15.2 nM | 0.002 s⁻¹
10 | B10 | 7.36 nM | 0.00109 s⁻¹
11 | B11 | 9.36 nM | 0.0013 s⁻¹
12 | B12 | 2.96 nM | 0.000441 s⁻¹
13 | B13 | 5.07 nM | 0.000716 s⁻¹
14 | B14 | 16.8 nM | 0.00238 s⁻¹
15 | B15 | 14.7 nM | 0.00221 s⁻¹
16 | B16 | 7.71 nM | 0.00112 s⁻¹
17 | B17 | 3.5 nM | 0.000566 s⁻¹
18 | B18 | 3.15 nM | 0.000507 s⁻¹
19 | B19 | 5.7 nM | 0.000893 s⁻¹
20 | B20 | 4.89 nM | 0.000742 s⁻¹
21 | B21 | 6.19 nM | 0.000958 s⁻¹

The binders below were run against T4, mouse serum albumin (mouse, UniProt P07724 25-608) (assay: Octet HTX (ForteBio), HCAb on AHC sensor, 1:1 fit).
T4 construct: also called MSA
T4 sequence (P07724 25-608 limits assumed): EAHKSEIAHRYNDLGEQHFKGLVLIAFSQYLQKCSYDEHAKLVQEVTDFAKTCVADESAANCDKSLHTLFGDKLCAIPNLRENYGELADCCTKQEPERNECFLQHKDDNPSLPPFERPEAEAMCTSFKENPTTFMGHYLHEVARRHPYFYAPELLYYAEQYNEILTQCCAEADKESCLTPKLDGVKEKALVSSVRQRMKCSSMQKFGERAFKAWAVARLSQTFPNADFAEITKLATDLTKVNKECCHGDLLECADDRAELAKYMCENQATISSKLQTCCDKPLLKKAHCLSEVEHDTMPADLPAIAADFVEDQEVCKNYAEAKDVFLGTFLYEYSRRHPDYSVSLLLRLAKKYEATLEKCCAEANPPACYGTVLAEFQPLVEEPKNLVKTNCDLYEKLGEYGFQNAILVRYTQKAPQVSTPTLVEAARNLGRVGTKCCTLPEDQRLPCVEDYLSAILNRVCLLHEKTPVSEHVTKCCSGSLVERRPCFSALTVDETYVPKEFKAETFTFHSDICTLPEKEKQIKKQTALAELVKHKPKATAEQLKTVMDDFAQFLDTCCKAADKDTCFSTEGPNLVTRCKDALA

Row | Binder | Kd | koff
22 | B8 | 44.8 nM | 0.00877 s⁻¹
23 | B9 | 154 nM | 0.0206 s⁻¹
24 | B10 | 41.1 nM | 0.00854 s⁻¹
25 | B11 | 12 nM | 0.00274 s⁻¹
26 | B12 | 6.43 nM | 0.00132 s⁻¹
27 | B13 | 16.1 nM | 0.00341 s⁻¹
28 | B14 | 45.6 nM | 0.00851 s⁻¹
29 | B15 | 17.5 nM | 0.0038 s⁻¹
30 | B16 | 50.6 nM | 0.0105 s⁻¹
31 | B17 | 11.9 nM | 0.00284 s⁻¹
32 | B18 | 4.32 nM | 0.00107 s⁻¹
33 | B19 | 38.9 nM | 0.00838 s⁻¹
34 | B20 | 15.1 nM | 0.00324 s⁻¹
35 | B21 | 8.06 nM | 0.00185 s⁻¹

What follows are binders tested against cynomolgus serum albumin (cynomolgus, UniProt A2V9Z4 25-608) (assay: Octet HTX (ForteBio), HCAb on AHC sensor, 1:1 fit).
Chain of cynomolgus serum albumin (A2V9Z4 25-608 limits assumed): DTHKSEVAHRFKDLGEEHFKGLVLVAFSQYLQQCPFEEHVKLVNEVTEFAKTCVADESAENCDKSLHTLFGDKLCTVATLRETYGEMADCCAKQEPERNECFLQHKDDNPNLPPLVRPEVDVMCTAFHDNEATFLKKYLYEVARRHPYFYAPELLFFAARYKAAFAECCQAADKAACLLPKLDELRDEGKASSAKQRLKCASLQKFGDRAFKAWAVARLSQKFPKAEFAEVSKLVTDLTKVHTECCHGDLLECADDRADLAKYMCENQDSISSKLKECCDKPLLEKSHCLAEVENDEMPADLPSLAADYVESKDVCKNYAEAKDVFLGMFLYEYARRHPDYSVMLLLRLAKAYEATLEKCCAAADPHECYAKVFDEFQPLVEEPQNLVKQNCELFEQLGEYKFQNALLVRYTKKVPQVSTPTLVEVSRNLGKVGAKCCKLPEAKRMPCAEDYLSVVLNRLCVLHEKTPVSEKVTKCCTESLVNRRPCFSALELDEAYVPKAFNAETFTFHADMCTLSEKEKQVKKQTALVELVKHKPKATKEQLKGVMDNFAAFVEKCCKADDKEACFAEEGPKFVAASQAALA

Row | Binder | Kd | koff
36 | B8 | 4.05 nM | 0.000608 s⁻¹
37 | B9 | 12.7 nM | 0.00163 s⁻¹
38 | B10 | 5.73 nM | 0.000864 s⁻¹
39 | B11 | 6.65 nM | 0.00102 s⁻¹
40 | B12 | 3.37 nM | 0.000618 s⁻¹
41 | B13 | 3.58 nM | 0.000532 s⁻¹
42 | B14 | 13.3 nM | 0.00182 s⁻¹
43 | B15 | 12 nM | 0.00173 s⁻¹
44 | B16 | 6.1 nM | 0.000874 s⁻¹
45 | B17 | 3.1 nM | 0.000503 s⁻¹
46 | B18 | 2.6 nM | 0.000422 s⁻¹
47 | B19 | 5.2 nM | 0.000759 s⁻¹
48 | B20 | 3.62 nM | 0.000541 s⁻¹
49 | B21 | 5.27 nM | 0.000794 s⁻¹

Each binder was assayed against protein A (UniProt P38507 37-327) (assay: Octet HTX (ForteBio), HCAb on AHC sensor, 1:1 fit).

Row | Binder | Kd | koff
50 | B8 | 1.78 nM | 0.0002 s⁻¹
51 | B9 | 2.76 nM | 0.000297 s⁻¹
52 | B13 | 1.84 nM | 0.0002 s⁻¹
53 | B14 | 3.09 nM | 0.000333 s⁻¹
54 | B16 | 1.7 nM | 0.0002 s⁻¹
55 | B17 | 1.78 nM | 0.0002 s⁻¹
56 | B19 | 3.67 nM | 0.000378 s⁻¹
57 | B20 | 2.02 nM | 0.000221 s⁻¹
58 | B21 | 2.94 nM | 0.000294 s⁻¹

The binders below were run against T4, mouse serum albumin (assay: ratio of the Octet KD for mouse serum albumin to that for human serum albumin).

Row | Binder | Ratio of MSA-KD to HSA-KD
59 | B8 | 8.07
60 | B9 | 10.1
61 | B10 | 5.59
62 | B11 | 1.28
63 | B12 | 2.17
64 | B13 | 3.17
65 | B14 | 2.72
66 | B15 | 1.2
67 | B16 | 6.57
68 | B17 | 3.4
69 | B18 | 1.37
70 | B19 | 6.82
71 | B20 | 3.09
72 | B21 | 1.3

What follows are binders tested against T2, human CD19 (assay: Octet HTX (ForteBio), IgG on AHC sensor, 1:1 fit).
Experimental: The binding affinity of the antibodies to isolated CD19 was measured by […] using a ForteBio Octet HTX system as previously described (see, e.g., Estep et al, High throughput solution-based measurement of antibody-antigen affinity and epitope binning. Mabs 5(2), 270-278 (2013)). Briefly, ForteBio affinity measurements were performed by loading IgGs on-line onto anti-hIgG Fc Capture (AHC) sensors. The sensors were equilibrated off-line in assay buffer for 30 minutes and then monitored on-line for 60 seconds for baseline establishment. The sensors with loaded IgGs were exposed to 100 nM […] for 3 minutes, and subsequently transferred to assay buffer for 3 minutes for off-rate measurement. All kinetics were analyzed using the 1:1 binding model.

Row | Binder | Kd | koff
73 | B1 | 0.248 nM | 4.7e-05 s⁻¹
74 | B2 | 0.367 nM | 0.000101 s⁻¹
75 | B3 | 0.107 nM | 4.6e-05 s⁻¹
76 | B4 | 0.0859 nM | 4e-05 s⁻¹
77 | B5 | 0.104 nM | 4.66e-05 s⁻¹
78 | B6 | 0.135 nM | 4e-05 s⁻¹
79 | B7 | 0.156 nM | 6.69e-05 s⁻¹

From patent US20230037815A1 (CULLINAN THERAPEUTICS, published 2023)
